{"source": "patent US11504441B2", "about": "“Radiolabeled compounds targeting the prostate-specific membrane antigen” (PROVINCIAL HEALTH SERVICES AUTHORITY, priority 2019, dated 2022)", "tested_on": "PSMA-expressing LNCaP cancer xenografts", "conditions": "mouse, in vivo"}
{"smiles": "O=C(O)CCCCC(NC(=O)N[C@@H](CCCCNC(=O)[C@H](Cc1c2ccccc2cc2ccccc12)NC(=O)[C@H]1CC[C@H](CNC(=O)CN2CCN(CC(=O)O)CCN(CC(=O)O)CCN(CC(=O)O)CC2)CC1)C(=O)O)C(=O)O", "note": "(single isomer, unassigned) [68Ga-HTK03189B, metal not drawn]", "values": [{"measurement": "Adrenal glands uptake", "setting": "male, NODSCID 1L2RγKO, iv, 1 h", "value": "0.37 ± 0.15", "unit": "% ID/g"}, {"measurement": "Blood uptake", "setting": "male, NODSCID 1L2RγKO, iv, 1 h", "value": "1.06 ± 0.25", "unit": "% ID/g"}, {"measurement": "Bone uptake", "setting": "male, NODSCID 1L2RγKO, iv, 1 h", "value": "0.10 ± 0.02", "unit": "% ID/g"}, {"measurement": "Brain uptake", "setting": "male, NODSCID 1L2RγKO, iv, 1 h", "value": "0.03 ± 0.00", "unit": "% ID/g"}, {"measurement": "Fat uptake", "setting": "male, NODSCID 1L2RγKO, iv, 1 h", "value": "0.17 ± 0.10", "unit": "% ID/g"}, {"measurement": "Heart uptake", "setting": "male, NODSCID 1L2RγKO, iv, 1 h", "value": "0.30 ± 0.06", "unit": "% ID/g"}, {"measurement": "Intestine uptake", "setting": "male, NODSCID 1L2RγKO, iv, 1 h", "value": "0.28 ± 0.07", "unit": "% ID/g"}, {"measurement": "Kidneys uptake", "setting": "male, NODSCID 1L2RγKO, iv, 1 h", "value": "2.13 ± 0.45", "unit": "% ID/g"}, {"measurement": "Lacrimal uptake", "setting": "male, NODSCID 1L2RγKO, iv, 1 h", "value": "0.13 ± 0.04", "unit": "% ID/g"}, {"measurement": "Liver uptake", "setting": "male, NODSCID 1L2RγKO, iv, 1 h", "value": "0.39 ± 0.08", "unit": "% ID/g"}, {"measurement": "Lungs uptake", "setting": "male, NODSCID 1L2RγKO, iv, 1 h", "value": "0.82 ± 0.22", "unit": "% ID/g"}, {"measurement": "Muscle uptake", "setting": "male, NODSCID 1L2RγKO, iv, 1 h", "value": "0.12 ± 0.03", "unit": "% ID/g"}, {"measurement": "Pancreas uptake", "setting": "male, NODSCID 1L2RγKO, iv, 1 h", "value": "0.18 ± 0.05", "unit": "% ID/g"}, {"measurement": "Salivary uptake", "setting": "male, NODSCID 1L2RγKO, iv, 1 h", "value": "0.22 ± 0.04", "unit": "% ID/g"}, {"measurement": "Seminal uptake", "setting": "male, NODSCID 1L2RγKO, iv, 1 h", "value": "2.62 ± 4.74", "unit": "% ID/g"}, {"measurement": "Spleen uptake", "setting": "male, NODSCID 1L2RγKO, iv, 1 h", "value": "0.20 ± 0.05", "unit": "% ID/g"}, {"measurement": "Stomach uptake", "setting": "male, NODSCID 1L2RγKO, iv, 1 h", "value": "0.11 ± 0.03", "unit": "% ID/g"}, {"measurement": "Tail uptake", "setting": "male, NODSCID 1L2RγKO, iv, 1 h", "value": "0.90 ± 0.29", "unit": "% ID/g"}, {"measurement": "Testes uptake", "setting": "male, NODSCID 1L2RγKO, iv, 1 h", "value": "0.26 ± 0.05", "unit": "% ID/g"}, {"measurement": "Thyroid uptake", "setting": "male, NODSCID 1L2RγKO, iv, 1 h", "value": "0.29 ± 0.08", "unit": "% ID/g"}, {"measurement": "Tumor uptake", "setting": "male, NODSCID 1L2RγKO, iv, 1 h", "value": "0.67 ± 0.15", "unit": "% ID/g"}, {"measurement": "Urine uptake", "setting": "male, NODSCID 1L2RγKO, iv, 1 h", "value": "441 ± 138", "unit": "% ID/g"}, {"measurement": "Blood: Salivary ratio", "value": "4.86 ± 1.16"}, {"measurement": "Tumor: Blood ratio", "value": "0.65 ± 0.15"}, {"measurement": "Tumor: Kidney ratio", "value": "0.32 ± 0.05"}, {"measurement": "Tumor: Muscle ratio", "value": "5.68 ± 1.12"}, {"measurement": "Tumor: Salivary ratio", "value": "3.08 ± 0.53"}]}
